Values of other authors as cited in patent publication US10131637B2, “Anti-PCSK9 compounds and methods for the treatment and/or prevention of cardiovascular diseases” (Shifa Biomedical Corporation, priority 2013, dated 2018).

Target: T1, PCSK9 (Homo sapiens, UniProt Q8NBP7)
T1 construct: slashed LDL levels by more than 60% in clinical trial; host or cells: patients in a clinical trial (endogenous circulating PCSK9)
Conditions: single injection, clinical trial

- reduction of LDL levels: more than 60%
Substance: REGN727: Regeneron/Sanofi monoclonal antibody blocking PCSK9
